Data as given in the supplement of paper PMC9112550, “Optimization of the antimicrobial peptide Bac7 by deep mutational scanning” (BMC Biology, 2022).

system: Escherichia coli TOP10; experiment: shrunken log2 fold change of peptide-encoding DNA abundance (4.5 h post-induction vs induction); higher = less antimicrobial activity (less host growth inhibition); details: time post-induction: 4.5 h; library: site-saturation at positions 5, 18, 19, 20
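Also: peptides expressed intracellularly from a pBAD plasmid library in pooled LB shake-flask culture, induced with 0.3% L-arabinose, DNA abundance read by NGS, three biological replicates, DESeq2 with apeglm shrinkage.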

Sequence | shrunken log2 fold change
RRIRIRPPRLPRPRPRPHIWPRP | -0.582
RRIRSRPPRLPRPRPRPPQYPRP | -0.0375
RRIRVRPPRLPRPRPRPFEWPRP | -0.102
RRIRQRPPRLPRPRPRPVPRPRP | 0.829
RRIRARPPRLPRPRPRPQNEPRP | -0.12
RRIRVRPPRLPRPRPRPNNQPRP | -0.483
RRIRCRPPRLPRPRPRPVRLPRP | 0.499
RRIRPRPPRLPRPRPRPPLQPRP | 0.327
RRIRKRPPRLPRPRPRPLGEPRP | 0.445
RRIRVRPPRLPRPRPRPKTHPRP | -0.0994
RRIRKRPPRLPRPRPRPKLNPRP | 0.218
RRIRQRPPRLPRPRPRPMKGPRP | 0.0391
RRIRKRPPRLPRPRPRPDSGPRP | -0.00213
RRIRIRPPRLPRPRPRPKLTPRP | 0.0656
RRIRKRPPRLPRPRPRPRVNPRP | 0.0555
RRIRWRPPRLPRPRPRPAPQPRP | 0.743
RRIRWRPPRLPRPRPRPYMHPRP | -0.48
RRIRVRPPRLPRPRPRPHDSPRP | 0.0311
RRIRIRPPRLPRPRPRPAYEPRP | -0.277
RRIRLRPPRLPRPRPRPQEEPRP | -0.0207
RRIRYRPPRLPRPRPRPKQAPRP | 0.0341
RRIRNRPPRLPRPRPRPDVNPRP | -0.00804
RRIRYRPPRLPRPRPRPNTCPRP | -0.155
RRIRFRPPRLPRPRPRPPPVPRP | 1.43
RRIRDRPPRLPRPRPRPSVGPRP | 0.217

Sequence | shrunken log2 fold change
RRIRMRPPRLPRPRPRPSTIPRP | -0.23
RRIRRRPPRLPRPRPRPNRMPRP | -0.303
RRIRWRPPRLPRPRPRPNFEPRP | 0.00226
RRIRERPPRLPRPRPRPPMWPRP | 0.245
RRIRTRPPRLPRPRPRPTYTPRP | -0.496
RRIRTRPPRLPRPRPRPITDPRP | 0.177
RRIRYRPPRLPRPRPRPPQQPRP | 0.0729
RRIRYRPPRLPRPRPRPQASPRP | -0.0259
RRIRYRPPRLPRPRPRPGSSPRP | -0.853
RRIRYRPPRLPRPRPRPKEMPRP | -0.259
RRIRSRPPRLPRPRPRPMLRPRP | 0.123
RRIRTRPPRLPRPRPRPEVYPRP | -0.00166
RRIRYRPPRLPRPRPRPVYDPRP | -0.112
RRIRRRPPRLPRPRPRPHLTPRP | -0.132
RRIRPRPPRLPRPRPRPIYEPRP | -0.0945
RRIRDRPPRLPRPRPRPGQVPRP | 0.203
RRIRPRPPRLPRPRPRPAEIPRP | 0.0712
RRIRFRPPRLPRPRPRPPSCPRP | 0.337
RRIRDRPPRLPRPRPRPHVPPRP | -0.076
RRIRPRPPRLPRPRPRPLQKPRP | -0.0453
RRIRWRPPRLPRPRPRPPKYPRP | -0.163
RRIRNRPPRLPRPRPRPHTCPRP | 0.0167
RRIRWRPPRLPRPRPRPVLRPRP | 0.106
RRIRPRPPRLPRPRPRPVKSPRP | -0.0156
RRIRIRPPRLPRPRPRPHEEPRP | -0.031

Sequence | shrunken log2 fold change
RRIRCRPPRLPRPRPRPHPLPRP | 0.989
RRIRLRPPRLPRPRPRPYYLPRP | -0.477
RRIRVRPPRLPRPRPRPSKMPRP | -0.243
RRIRPRPPRLPRPRPRPVTRPRP | -0.0129
RRIRVRPPRLPRPRPRPHFIPRP | -0.304
RRIRERPPRLPRPRPRPHAKPRP | 0.0118
RRIRGRPPRLPRPRPRPRSIPRP | 0.238
RRIRPRPPRLPRPRPRPYQNPRP | -0.339
RRIRVRPPRLPRPRPRPMVMPRP | -0.0371
RRIRMRPPRLPRPRPRPWQQPRP | -0.0113
RRIRLRPPRLPRPRPRPSPCPRP | -0.252
RRIRERPPRLPRPRPRPVKMPRP | -0.0989
RRIRIRPPRLPRPRPRPMMLPRP | -0.0496
RRIRIRPPRLPRPRPRPSAFPRP | -0.15
RRIRGRPPRLPRPRPRPFLQPRP | 0.231
RRIRFRPPRLPRPRPRPWFIPRP | -0.175
RRIRSRPPRLPRPRPRPDAMPRP | 0.83
RRIRQRPPRLPRPRPRPCLWPRP | -0.162
RRIRCRPPRLPRPRPRPQWHPRP | 0.0206
RRIRTRPPRLPRPRPRPMYAPRP | -0.121
RRIRNRPPRLPRPRPRPTREPRP | 0.15
RRIRARPPRLPRPRPRPPYFPRP | 0.314
RRIRARPPRLPRPRPRPHTQPRP | -0.0761
RRIRWRPPRLPRPRPRPDVLPRP | -0.0113
RRIRSRPPRLPRPRPRPATQPRP | 0.168
